These results are taken from patent publication US20240132603A1 (HARBOUR BIOMED US, published 2024).

The target in assay [1] is T1, cynomolgus monkey CCR8 (cynomolgus monkey, UniProt G7NYJ2 1-355).
T1 construct: whole, on cells; also called CynoCCR8
The experiment in a line: FACS, CHO-K1-CynoCCR8 cells. Summed up: (§1)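 Anti-CCR8 antibodies titrated in 5-fold steps from 200 nM onto 1E6 cells/mL CHO-K1-CynoCCR8 in DPBS/2% FBS, 1 h at 4 °C. Bound antibody detected with 1:1000 secondary antibody, 40 min at 4 °C, then flow cytometry.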

The target in assay [2] is T2, human CCR8 (human, UniProt P51685 1-355).
T2 construct: whole, on cells; construct used for the overexpressing cell lines is not described; also called hCCR8
T2 sequence (P51685 whole entry): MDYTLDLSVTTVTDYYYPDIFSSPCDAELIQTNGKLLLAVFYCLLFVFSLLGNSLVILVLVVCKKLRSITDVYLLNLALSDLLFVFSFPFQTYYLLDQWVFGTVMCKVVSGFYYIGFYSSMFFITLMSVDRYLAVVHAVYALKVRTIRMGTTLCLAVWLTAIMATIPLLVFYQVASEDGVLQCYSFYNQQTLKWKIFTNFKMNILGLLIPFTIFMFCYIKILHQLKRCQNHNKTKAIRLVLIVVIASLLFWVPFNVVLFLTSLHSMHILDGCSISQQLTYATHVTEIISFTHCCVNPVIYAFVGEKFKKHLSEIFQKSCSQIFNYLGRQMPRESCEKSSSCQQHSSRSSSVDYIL
The experiment in a line: FACS competition on HEK293-hCCR8 cells against a biotin-labelled anti-CCR8 antibody at its EC80; the labelled antibody of this panel is not named on the sheet. On the procedure: (§2) The antibody was conjugated with Sulfo-NHS-LC-Biotin at a molar ratio of 5:1 (1 mol antibody was added to 5 mol Sulfo-NHS-LC-Biotin) with reference to the product instructions (ThermoFisher, Cat No. A39257) and incubated on ice for 2 h. The coupled antibody was purified with a Zeba desalting column (ThermoFisher, Cat No. 89882). Cells overexpressing human CCR8, HEK293-hCCR8, were added to a V-bottom 96-well plate at a density of 1E5 cells/well and centrifuged at 300 g for 5 min, and the supernatant was discarded. The competitive antibody was serially diluted in a ratio of 1:10 from 200 nM to obtain 8 concentration points. The Biotin-antibody and the competition antibody were mixed in a 1:1 ratio on an HEK293 cell line overexpressing human CCR8 by the binding EC₈₀ concentration. The cells in the 96-well plate were resuspended and incubated at 4° C. for 1 h. The plate was washed twice with DPBS at 200 μL/well. The secondary antibody diluted in a 1:1000 ratio was added at 100 μL/well, and the mixture was incubated at 4° C. for 40 min. The plate was washed twice with DPBS at 200 μL/well. Finally, DPBS was […] at 200 μL/well to suspend the cells, and the mixture was loaded on an FACS machine for analysis.

The target in assay [3] is T2, human CCR8. The experiment in a line: cell-based or functional assay.
In assay [4] the target is T1, cynomolgus monkey CCR8. Briefly: FACS, CHO-K1-CynoCCR8 cells. On the procedure:
(§3) Cells overexpressing cynomolgus monkey CCR8, CHO-K1-CynoCCR8, were digested with pancreatin, counted and resuspended to a cell density of 1E6 cells/mL. The cell suspension was added to a 96-well V-bottom plate at 100 μL/well and centrifuged at 300 g for 5 min, and the supernatant was discarded. The anti-CCR8 antibodies provided herein was used as a primary antibody and diluted in a 5-fold gradient with an FACS buffer (DPBS containing 2% FBS) from 200 nM. The diluted primary antibody was added at 100 μL/well to resuspend the cells, and the mixture was incubated at 4° C. for 1 h. The plate was washed twice with DPBS and centrifuged at 300×g for 5 min, and the supernatant was discarded. The secondary antibody diluted in a 1:1000 ratio with an FACS buffer was added at 100 μL/well to suspend the cells, and the mixture was incubated at 4° C. for 40 min. The plate was washed twice with DPBS and centrifuged at 300×g for 5 min, and the supernatant was discarded. DPBS was added at 200 μL/well to suspend the cells, and the mixture was loaded on an FACS machine for analysis.
This is another data set of the same source.

Assay [5] addresses T2, human CCR8. Briefly: FACS competition on HEK293-hCCR8 cells against a biotin-labelled anti-CCR8 antibody at its EC80; the labelled antibody of this panel is not named on the sheet. On the procedure: as §2
This is another data set of the same source.

Assay [6] addresses T2, human CCR8. The assay is described as above. On the procedure:
as §2
This is another data set of the same source.

Assay [7] has as its target T2, human CCR8. The assay is described as above. On the procedure: as §2
This is another data set of the same source.

In assay [8] the target is T2, human CCR8. The experiment in a line: FACS, HEK293-hCCR8 cells. The protocol: as §3, with “human CCR8” for “cynomolgus monkey CCR8, CHO-K1-CynoCCR8,”
Assay [9] deals with T2, human CCR8. The experiment in a line: FACS, CHO-K1-hCCR8 cells. Summed up:
(§4)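 Readout: FACS signal of cell-bound antibody. Staining used a 200 nM top concentration with 5-fold dilutions in 2% FBS buffer, 1 h at 4 °C, then secondary antibody for 40 min.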

Assay [10] deals with T2, human CCR8. The experiment in a line: cell-based or functional assay. The source holds these as a separate data set.
Assay [11] concerns the target T2, human CCR8. Briefly: FACS, HEK293-hCCR8 cells. On the procedure:
as §3, with “human CCR8” for “cynomolgus monkey CCR8, CHO-K1-CynoCCR8,”
The source holds these as a separate data set. (In flow cytometry, cells or beads pass a laser one at a time.)

For assay [12], the target named is T2, human CCR8. The experiment in a line: FACS, Baf3-hCCR8 cells. The protocol: as §3, with “human CCR8” for “cynomolgus monkey CCR8, CHO-K1-CynoCCR8,”
For assay [13], the target named is T2, human CCR8. Briefly: FACS competition on HEK293-hCCR8 cells against a biotin-labelled anti-CCR8 antibody at its EC80; the labelled antibody of this panel is not named on the sheet. The protocol:
as §2
The source holds these as a separate data set.

Assay [14] deals with T2, human CCR8. Briefly: FACS on CHO-K1 cells overexpressing human CCR8. On the procedure: as §3, with “human CCR8” for “cynomolgus monkey CCR8, CHO-K1-CynoCCR8,”
Assay [15] has as its target T1, cynomolgus monkey CCR8. Briefly: FACS on CHO-K1 cells overexpressing cynomolgus monkey CCR8. The protocol:
as §3

Assay [16] addresses T2, human CCR8. Briefly: FACS, CHO-K1-hCCR8 cells. Summed up:
as §4
This is another data set of the same source.

The target in assay [17] is T1, cynomolgus monkey CCR8. The experiment in a line: FACS, CHO-K1-CynoCCR8 cells. Summed up: as §1
The source holds these as a separate data set.

As a reminder, the EC50 is the concentration giving half of the maximal effect. By EC50 (read off the curve) is commonly meant the concentration giving half of the maximal effect.

Like-named read-outs stand apart in the source and are kept apart here.

T1 sequence (G7NYJ2 entry or part of it): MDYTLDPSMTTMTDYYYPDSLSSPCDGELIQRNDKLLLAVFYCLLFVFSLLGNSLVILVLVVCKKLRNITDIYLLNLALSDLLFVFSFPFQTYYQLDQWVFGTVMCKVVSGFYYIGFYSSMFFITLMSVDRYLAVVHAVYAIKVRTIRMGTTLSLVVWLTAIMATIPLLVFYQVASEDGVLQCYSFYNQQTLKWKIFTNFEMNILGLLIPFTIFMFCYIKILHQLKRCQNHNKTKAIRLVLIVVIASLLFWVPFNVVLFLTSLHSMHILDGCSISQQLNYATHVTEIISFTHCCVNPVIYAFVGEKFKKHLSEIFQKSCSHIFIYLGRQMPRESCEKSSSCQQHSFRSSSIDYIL

B1: PR004125 (antibody, human IgG1, kappa)
heavy: not shown
light: DIVMTQAAPSVPVTPGESVSISCRSSKSLLHSNGNTYLYWFLQRPGQSPQLLIYRMSNLASGVPDRFSGSGSGTAFTLRISRVEAEDVGVYYCMQHLEYPLTFGAGTKLEMKRTVAAPSVFIFPPSDEQLKSGTASVVCLLNNFYPREAKVQWKVDNALQSGNSQESVTEQDSKDSTYSLSSTLTLSKADYEKHKVYACEVTHQGLSSPVTKSFNRGEC
notes: chimeric, human IgG1 constant region
In the case of B1, the EC50 with cynomolgus monkey CCR8 [1] stood at 1.16 nM; in the assay with cynomolgus monkey CCR8 [4], 2.44 nM; in the assay with human CCR8 [8], 0.72 nM; in the assay with human CCR8 [9] it was 0.5 nM; in the assay with human CCR8 [11] it was 0.66 nM; in the assay with human CCR8 [12] it was 0.21 nM. Moreover, the “IC50 (read off the curve)” value was roughly 2 nM in the assay with human CCR8 [2]; roughly 2 nM with human CCR8 [5]; 1 to 2 nM with human CCR8 [6]; roughly 2 nM in the assay with human CCR8 [7]; roughly 3 nM with human CCR8 [13]. Besides, in the assay with human CCR8 [3], the “EC50, ADCC reporter gene activity (Jurkat/FcγR III-NFAT effector cells)” value came out at 0.59 nM. For the same molecule, the “Bottom %, blocking of CCL1-stimulated calcium flux” value with human CCR8 [10] turned out to be 23%. In the assay with human CCR8 [10], the “IC50(nM), blocking of CCL1-stimulated calcium flux” value is 1.16 nM.

B2: PR005170 (antibody, human IgG1, kappa, V domains shown)
VH: EVQLVESGGGLVQPKGSLKLSCAASGFTFNTYAMNWVRQAPGKGLEWVARIRSKSNNYATYYADSVKDRFTISRDDSQSMLYLQMNNLKTEDTAMYYCVRGKENGNYYAMDFWGQGTSVTVSA
VL: DIVMTQAAPSVPVTPGESVSISCRSSKSLLHSNGKIYLYWFLQRPGQSPQLLIYRMSNLASGVPDRFSGSGSGTAFTLRISRVEAEDVGVYYCMQHLEYPITFGAGTKLEIKR
notes: heavy chain entry as PR004128
On to B2, for which the “EC50 (read off the curve)” value with human CCR8 [14] was roughly 1 nM.

B3: PR005172 (antibody, human IgG1, kappa, V domains shown)
VH: EVQLVESGGGLVQPKGSLKLSCAASGFTFNTYAMNWVRQAPGKGLEWVARIRSKSNNYATYYADSVKDRFTISRDDSQSMLYLQMNNLKTEDTAMYYCVRGKENGNYYAMDFWGQGTSVTVSA
VL: DIVMTQAAPSVPVTPGESVSISCRSSKSLLHSNGKIYLYWFLQRPGQSPQLLIYRMSNLASGVPDRFSGSGSGTAFTLRISRVEAEDVGVYYCMQHLEYPVTFGAGTKLEIKR
notes: heavy chain entry as PR004128
B3: the “EC50 (read off the curve)” value with human CCR8 [14] was roughly 2 nM.

B4: PR004250 (antibody, human IgG1, kappa)
heavy: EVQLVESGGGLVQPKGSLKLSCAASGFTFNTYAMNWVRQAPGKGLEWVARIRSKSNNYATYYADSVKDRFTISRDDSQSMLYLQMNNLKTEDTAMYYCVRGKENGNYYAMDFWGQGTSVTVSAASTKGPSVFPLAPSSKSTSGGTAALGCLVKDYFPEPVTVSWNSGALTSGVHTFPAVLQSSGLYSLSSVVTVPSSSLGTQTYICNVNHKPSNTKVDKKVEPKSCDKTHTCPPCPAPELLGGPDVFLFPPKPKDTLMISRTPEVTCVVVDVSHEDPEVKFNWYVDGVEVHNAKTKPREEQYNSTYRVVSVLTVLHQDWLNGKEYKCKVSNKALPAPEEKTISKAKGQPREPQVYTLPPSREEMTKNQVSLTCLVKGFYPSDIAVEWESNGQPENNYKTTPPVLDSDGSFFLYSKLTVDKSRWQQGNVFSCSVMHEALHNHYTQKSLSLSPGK
light: DIVMTQAAPSVPVTPGESVSISCRSSKSLLHSNGNTYLYWFLQRPGQSPQLLIYRMSNLASGVPDRFSGSGSGTAFTLRISRVEAEDVGVYYCMQHLEYPLTFGAGTKLEMKRTVAAPSVFIFPPSDEQLKSGTASVVCLLNNFYPREAKVQWKVDNALQSGNSQESVTEQDSKDSTYSLSSTLTLSKADYEKHKVYACEVTHQGLSSPVTKSFNRGEC
notes: PR004125 with S239D and I332E (DE) in the IgG1 constant region
With B4, the “EC50, ADCC reporter gene activity (Jurkat/FcγR III-NFAT effector cells)” value in the assay with human CCR8 [3] worked out at 0.04 nM. Further, the EC50 was found to be 3.5 nM with cynomolgus monkey CCR8 [4] and 1.66 nM with human CCR8 [11].

B5: PR005171 (antibody, human IgG1, kappa, V domains shown)
VH: EVQLVESGGGLVQPKGSLKLSCAASGFTFNTYAMNWVRQAPGKGLEWVARIRSKSNNYATYYADSVKDRFTISRDDSQSMLYLQMNNLKTEDTAMYYCVRGKENGNYYAMDFWGQGTSVTVSA
VL: DIVMTQAAPSVPVTPGESVSISCRSSKSLLHSNGKIYLYWFLQRPGQSPQLLIYRMSNLASGVPDRFSGSGSGTAFTLRISRVEAEDVGVYYCMQHLEYPMTFGAGTKLEIKR
notes: heavy chain entry as PR004128
Take B5: the “EC50 (read off the curve)” value with human CCR8 [14] was roughly 1 nM.

B6: PR004342 (antibody, human IgG1, kappa, V domains shown)
VH: EVQLVESGGGLVQPKGSLKLSCAASGFTFNTYAMNWVRQAPGKGLEWVARIRSKSNNYATYYADSVKDRFTISRDDSQSMLYLQMNNLKTEDTAMYYCVRGKENGNYYAMDFWGQGTSVTVSA
VL: DIVMTQSPLSLPVTPGEPASISCRSSKSLLHSNGNTYLYWFLQKPGQSPQLLIYRMSNLASGVPDRFSGSGSGTDFTLKISRVEAEDVGVYYCMQHLEYPFTFGQGTKLEIKR
As to B6, the binding result in the assay with cynomolgus monkey CCR8 [15] was “no binding (tested: 200 nM)”. Besides, the EC50 in the assay with human CCR8 [16] was determined as 0.8 nM.

B7: PR004346 (antibody, human IgG1, kappa, V domains shown)
VH: EVQLVESGGGLVQPKGSLKLSCAASGFTFNTYAMNWVRQAPGKGLEWVARIRSKSNNYATYYADSVKDRFTISRDDSQSMLYLQMNNLKTEDTAMYYCVRGKENGNYYAMDFWGQGTSVTVSA
VL: DIVMTQSPLSLPVTLGQPASISCRSSKSLLHSNGNTYLYWFQQRPGQSPRLLIYRMSNLASGVPDRFSGSGSGTDFTLKISRVEAEDVGVYYCMQHLEYPFTFGQGTKLEIKR
Turning to B7, in the assay with cynomolgus monkey CCR8 [15], the binding result was “no binding (tested: 200 nM)”. This molecule also had an EC50 with human CCR8 [16] of 0.91 nM.

B8: PR004970 (antibody, human IgG1, kappa, V domains shown)
VH: EVQLVESGGGLVQPGGSLRLSCAASGFTFSSYWMSWVPQAPGKGLEWVANIKQDGSAKFYVDSVKGRFTISRDNAKNSLYLQMNSLRAEDTAVYYCARSWGFAYWGQGTLVTVSS
VL: DIQMTQSPSSLSASVGDRVTITCRASQGISNYLAWYQQKPGKVPKLLIYAASTLQSGVPSRFSGSGSGTDFTLTISSLQPEDVATYYCQKYNSAPWTFGQGTKVEIKR
notes: fully human, from single cell clone screening
As to B8, the binding result with human CCR8 [14] is reported as “binds”.

B9: PR004668 (antibody, human IgG1, kappa)
heavy: not shown
light: DIVMTQSPLSLPVTPGEPASISCRSSKSLLHSNGKIYLYWFLQKPGQSPQLLIYRMSNLASGVPDRFSGSGSGTDFTLKISRVEAEDVGVYYCMQHLEYPLTFGQGTKLEIKRTVAAPSVFIFPPSDEQLKSGTASVVCLLNNFYPREAKVQWKVDNALQSGNSQESVTEQDSKDSTYSLSSTLTLSKADYEKHKVYACEVTHQGLSSPVTKSFNRGEC
notes: humanized; same VH/VL as PR004520, other heavy chain entry
Take B9: the EC50 amounted to 1.88 nM in the assay with cynomolgus monkey CCR8 [17] and 0.62 nM in the assay with human CCR8 [9]. Also, in the assay with cynomolgus monkey CCR8 [15], the “EC50 (read off the curve)” value is roughly 2 nM.
